Test results from US20230035798A1 (CAPELLA BIOSCIENCE, published 2023).
Positions count from the first letter of the chain named.

B1: 3E09 (antibody, V domains shown)
VH: EVQLVESGGGLVKPGGSLKLSCEASGFTFSDYYMYWVRQTPEKRLEWVAAIGDGGIYTYYADTVKGRFTISRDNAKNILYLQMSSLKSNDTAMYYCARGTGDGFAYWGQGTLVTVS
VL: DIVLTQSPASLAVSLGQRATISCRASESVDSYGNSFMHWYQQKPGQPPKLLIYLASNLESGVPARFSGSGSRTDFTLTIDPVEADDAATYYCQQNNEDPYTFGGGTKLEIK
notes: chimeric human IgG4 (S-to-P, L-to-E at 248), human CL; also called Parental 3E09
B2: 2E08 (antibody, human IgG4, V domains shown)
VH: QVQMKESGAELVRPGVSVKISCKGSGYTFTDYAIHWVKQSHAKTLEWIGVISTYYGDASYNQKFKGKATMTVDKSSSTAYMELARLTSDDSAIYYCARSRGEYGNYDAMDYWGQGTSVTVSS
VL: DIVLTQSPASLAVSLGQRATISCKASQSVDYDGDSYMNWYQQKPGQPPKLLIYAASNLESGIPARFSGSGSGTDFTLNIHPVEEEDAATYYCQQSNEDPLTFGAGTKLELK
notes: chimeric human IgG4 (S-to-P, L-to-E at 248), human CL; also called Parental 2E08
B3: 2B11 (antibody, human IgG4, V domains shown)
VH: B2 VH with Q1E, M4L, K5V, T44S, D89E
VL: B1 VL with L54R, V62I, D80N, A87V, N95S
notes: chimeric human IgG4 (S-to-P, L-to-E at 248), human CL; also called Parental 2B11
B4: 3A07 (antibody, human IgG4, V domains shown)
VH: QVQLQQSGAELVRPGAPVTLSCKASDYTFTDSEIHWVKQTPVHGLEWIGEIDPETGGTAYNQKFKGKATLTADKSSSTAYMELRSLTSEDSAVYYCSRETDYFFDYWGQGTTLTVSS
VL: ENVLTQSPAIMSASPGEKVTMTCSASSSVSYMYWYQQRPGSSPRLLIYDTSNLASGVPVRFSGSGSGTSYSLTISRMEAEDAATYYCQQWSSYPLTFGSGTKLEIK
notes: chimeric human IgG4 (S-to-P, L-to-E at 248), human CL; also called Parental 3A07
B5: 3B04 (antibody, human IgG4, V domains shown)
VH: B4 VH with S7P, P17S, D26G, S32Y, I34M, G57D, N61S, L83F
VL: DIQMTQTPASLSASVGETVTITCGASENIYGALNWYQRKQGKSPQLLIYGATNLADGMSSRFSGSGSGRQYSLKISSLHPDDFATYYCQNVLTTPWTFGGGTKLEIKR
notes: chimeric: mouse variable domains on human IgG4 HC (S-to-P and L-to-E at 248) and human CL; also called Parental 3B04; 3B04 chimeric
B6: 3C10 (antibody, human IgG4, V domains shown)
VH: B4 VH with Q1E, P17S
VL: B4 VL with E1D, N2V, L4M, S7T, R38K, S99A, I105L
notes: chimeric human IgG4 (S-to-P, L-to-E at 248), human CL; also called Parental 3C10
B7: 3D12 (antibody, human IgG4, V domains shown)
VH: B4 VH with S7P, P17S
VL: B5 VL with T7S, F83V, T93S
notes: chimeric: mouse variable domains on human IgG4 HC (S-to-P and L-to-E at 248) and human CL; also called Parental 3D12; 3D12 chimeric

Each binder was assayed against T1, human LIGHT (TNFSF14), full length, membrane-bound (214E allele) (human, UniProt O43557 1-240) (assay: flow cytometry, transfected HEK293FF, mAb at EC50).
T1 construct: also called membrane LIGHT; human membrane LIGHT
Procedure: (§1) The day of transfection the cells were seeded in a 24-well plate at 0.6×10⁶ cells/well. Lipofectamine 2000 (ThermoFisher scientific), 3 μl, was mixed with 50 μl OptiMEM medium (GIBCO) and then added to 50 μl Opti-MEM medium containing 3 ug plasmid DNA and incubated for 20 min at RT to form DNA-Lipofectamine 2000 complexes which were then added to the HEK293FF cells and incubated at 37° C., 5% CO₂ for 24 hours. For each construct, in duplicate, 0.60×10⁶ cells/well were used in a 96 well round bottom plate. Cells were centrifuged for 3 minutes at 300×g at 4° C., the supernatant discarded and the cells washed with 150 μl FACS buffer (0.5% FBS in phosphate buffered saline). This process was repeated 3 times. […] The wells were washed 3 times as above and 50 μl/well of goat anti-human IgG FITC (1:1500 dilution in FACS buffer, SIGMA F9512-2ML) or goat anti-mouse APC (1/500 dilution in FACS buffer, BDBioscience 550826), as appropriate, was added to the wells and incubated for 30 min at 4° C. protected from the light, with shaking. The cells were then washed as above, resuspended in 100 μl of FACS buffer and binding of the antibodies to the constructs was measured using flow cytometry and a total of 10,000 cells were acquired for each sample. Controls of buffer and secondary antibody only as well as HEK293FF non transfected cells were also used.

| Binder | binding, % of WT [%] |
| --- | --- |
| B1 | 100 |
| B2 | 100 |
| B3 | 100 |
| B4 | 100 |
| B5 | 100 |
| B6 | 100 |
| B7 | 100 |

Biological target: T2, membrane LIGHT G188A (human, UniProt O43557 1-240)
T2 construct: full-length LIGHT with the substitution on HEK293FF cells
T2 chain: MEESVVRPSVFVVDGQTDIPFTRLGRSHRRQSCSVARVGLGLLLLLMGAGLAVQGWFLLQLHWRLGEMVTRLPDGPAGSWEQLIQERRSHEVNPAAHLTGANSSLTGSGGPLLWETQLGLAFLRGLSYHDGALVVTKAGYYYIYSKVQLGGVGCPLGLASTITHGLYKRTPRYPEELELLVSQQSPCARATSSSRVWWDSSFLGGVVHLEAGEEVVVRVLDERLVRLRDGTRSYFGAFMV
Assay: flow cytometry, transfected HEK293FF, mAb at EC50
Procedure: as §1

| Binder | binding, % of WT [%] |
| --- | --- |
| B1 | 35 |
| B2 | 44 |
| B3 | 3 |
| B4 | 5 |
| B5 | 6 |
| B6 | 3 |
| B7 | 20 |

Biological target: T3, membrane LIGHT R189A (human, UniProt O43557 1-240)
T3 chain: T2 chain with A188G, R189A
Assay: flow cytometry, transfected HEK293FF, mAb at EC50
Procedure: as §1

| Binder | binding, % of WT [%] |
| --- | --- |
| B1 | 1 |
| B2 | 2 |
| B3 | 0 |
| B4 | 0 |
| B5 | 0 |
| B6 | 0 |
| B7 | 1 |

Biological target: T4, membrane LIGHT A190S (human, UniProt O43557 1-240)
T4 chain: T2 chain with A188G, A190S
Assay: flow cytometry, transfected HEK293FF, mAb at EC50
Procedure: as §1

| Binder | binding, % of WT [%] |
| --- | --- |
| B1 | 97 |
| B2 | 93 |
| B3 | 52 |
| B4 | 47 |
| B5 | 68 |
| B6 | 40 |
| B7 | 82 |

Biological target: T5, membrane LIGHT S192A (human, UniProt O43557 1-240)
T5 chain: T2 chain with A188G, S192A
Assay: flow cytometry, transfected HEK293FF, mAb at EC50
Procedure: as §1

| Binder | binding, % of WT [%] |
| --- | --- |
| B1 | 50 |
| B2 | 122 |
| B3 | 96 |
| B4 | 41 |
| B5 | 88 |
| B6 | 35 |
| B7 | 84 |

What follows are binders tested against T1, human LIGHT (TNFSF14), full length, … (assay: DcR3-His (1 nM) competition, EL4-LIGHT, flow cytometry; 100 nM).
Procedure: EL4-LIGHT cells (0.25×10⁶) were preincubated with anti-membrane LIGHT mAbs (0-300 nM) for 15 min at 4° C. followed by incubation with DcR3-His tagged (1 nM, Creative BioMart; ref: TNFRSF6B-552H, lot: 962512) for 30 min at 4° C. The samples were then incubated with mouse anti-histag antibody (diluted 1:500, Biolegend, cat. no. 652502) for 30 minutes at 4° C., followed by incubation with anti-mouse APC (dil 1:500, BDBiosciences, cat. no. 550826) for 30 minutes at 4° C. The tubes were washed three times after each of the detection antibody stages and flow cytometry analysis was performed. Specific mean fluorescence intensity (MFI) obtained from the binding of DcR3-His to LIGHT on EL4 cells were used to determine the levels of competition binding.
In humans, LIGHT is neutralized by DcR3, a unique soluble member of the TNFR superfamily, which tightly binds LIGHT (both soluble and membrane forms) and inhibits its interactions with HVEM and LTβR. A major binding determinant for DcR3 neutralization is the region T170-E178 on LIGHT (Liu et al. Structure 2014: 9; 1252-1262). […] In contrast the anti-LIGHT mAb F19, (from EP2292663) which binds both soluble LIGHT and membrane LIGHT equally well completely displaces DcR3 from binding to membrane LIGHT highlighting a surprising an important functional difference between the anti-membrane LIGHT mAbs of this invention and other neutralizing anti-LIGHT mAbs that have been raised against or screened against soluble LIGHT.
Target sequence in this assay (O43557 whole entry K214E): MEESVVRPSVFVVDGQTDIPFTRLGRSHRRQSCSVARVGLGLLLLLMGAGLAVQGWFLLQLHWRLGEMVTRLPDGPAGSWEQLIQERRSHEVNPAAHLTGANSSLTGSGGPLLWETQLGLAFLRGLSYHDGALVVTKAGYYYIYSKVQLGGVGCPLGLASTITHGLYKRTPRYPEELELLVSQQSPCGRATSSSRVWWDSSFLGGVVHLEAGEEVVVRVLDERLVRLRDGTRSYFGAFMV

| Binder | DcR3-His binding, % of irrelevant mAb [%] |
| --- | --- |
| B1 | 65 |
| B2 | 53.7 |
| B3 | 70.6 |
| B4 | 64.2 |
| B5 | 75.8 |
| B6 | 63.8 |
| B7 | 80.3 |
